Reference: US20040037843A1
Where two headings read alike, the source gives them in different places. One block for each binder: values may come before it.

What was measured:
[1] = molecular target: HLA-A*0101 (human); conditions: remark: other sources report otherwise
[2] = molecular target: HLA-A*0201 (human); assay: inhibition of 125I probe peptide binding to purified HLA, gel filtration; conditions: remark: other sources report otherwise
[3] = molecular target: HLA-A*6802 (human); assay: as above; conditions: remark: other sources report otherwise
[4] = molecular target: HLA-A*2401 (human); conditions: scale: ratio
[5] = molecular target: HLA-A*0202 (human); assay: competition with 125I-labeled probe peptide for purified HLA, gel filtration; conditions: remark: other sources report otherwise
[6] = molecular target: HLA-A*0201 (human); assay: competition with 125I probe peptide on purified HLA, gel filtration; conditions: remark: other sources report otherwise
[7] = molecular target: HLA-A*6802 (human); assay: as above; conditions: remark: other sources report otherwise
[8] = molecular target: HLA-A*6802 (human); assay: competition with 125I-labeled probe peptide for purified HLA, gel filtration; conditions: remark: other sources report otherwise
[9] = molecular target: HLA-A*1101 (human); conditions: remark: other sources report otherwise
[10] = molecular target: HLA-A*0203 (human); assay: competition with 125I probe peptide on purified HLA, gel filtration; conditions: remark: other sources report otherwise
[11] = molecular target: HLA-A*0206 (human); assay: as above; conditions: remark: other sources report otherwise
[12] = molecular target: HLA-A*0203 (human); conditions: remark: other sources report otherwise
[13] = molecular target: HLA-A*0206 (human); assay: competition with 125I-labeled probe peptide for purified HLA, gel filtration; conditions: remark: other sources report otherwise
[14] = molecular target: HLA-A*0301 (human); conditions: remark: other sources report otherwise
[15] = molecular target: HLA-A*0201 (human); conditions: remark: other sources report otherwise
[16] = molecular target: HLA-A*0202 (human); conditions: remark: other sources report otherwise
[17] = molecular target: HLA-A*0203 (human); conditions: remark: other sources report otherwise; remark: listed apart in the source
[18] = molecular target: HLA-A*0206 (human); conditions: remark: other sources report otherwise
[19] = molecular target: HLA-A*6802 (human); conditions: remark: other sources report otherwise
[20] = molecular target: HLA-A*0201 (human); assay: competition with 125I-labelled probe peptide on purified HLA; conditions: remark: other sources report otherwise
[21] = molecular target: HLA-A*0201 (human); conditions: remark: other sources report otherwise; remark: listed apart in the source
[22] = molecular target: HLA-A*0201 (human); conditions: remark: other sources report otherwise; remark: listed apart in the source
[23] = molecular target: HLA-A*0203 (human); conditions: remark: other sources report otherwise; remark: listed apart in the source
[24] = molecular target: HLA-A*0201 (human); conditions: remark: other sources report otherwise; remark: listed apart in the source
[25] = molecular target: HLA-A*0202 (human); conditions: remark: other sources report otherwise; remark: listed apart in the source
[26] = molecular target: HLA-A*0203 (human); assay: competition with 125I-labelled standard peptide for purified HLA; conditions: remark: other sources report otherwise
[27] = molecular target: HLA-A*1101 (human); conditions: remark: other sources report otherwise; remark: listed apart in the source
[28] = molecular target: HLA-A*0202 (human); assay: competition with 125I-labelled standard peptide for purified HLA; conditions: remark: other sources report otherwise
[29] = molecular target: HLA-A*0202 (human); assay: competition with 125I-labelled probe peptide on purified HLA; conditions: remark: other sources report otherwise
[30] = molecular target: HLA-A*0203 (human); assay: as above; conditions: remark: other sources report otherwise
[31] = molecular target: HLA-A*0206 (human); assay: as above; conditions: remark: other sources report otherwise
[32] = molecular target: HLA-A*0202 (human); assay: competition with 125I probe peptide on purified HLA, gel filtration; conditions: remark: other sources report otherwise
[33] = molecular target: HLA-A*0201 (human); assay: competition with 125I-labeled probe peptide for purified HLA, gel filtration; conditions: remark: other sources report otherwise
[34] = molecular target: HLA-A*0203 (human); conditions: remark: other sources report otherwise; remark: listed apart in the source
[35] = molecular target: HLA-A*0203 (human); assay: inhibition of 125I probe peptide binding to purified HLA, gel filtration; conditions: remark: other sources report otherwise
[36] = molecular target: HLA-A*0201 (human); assay: competition with 125I-labelled standard peptide for purified HLA; conditions: remark: other sources report otherwise
[37] = molecular target: HLA-A*0202 (human); assay: inhibition of 125I probe peptide binding to purified HLA, gel filtration; conditions: remark: other sources report otherwise
[38] = molecular target: HLA-A*0206 (human); assay: as above; conditions: remark: other sources report otherwise
[39] = molecular target: HLA-A*0206 (human); assay: competition with 125I-labelled standard peptide for purified HLA; conditions: remark: other sources report otherwise

Binder: VYNGLLPPY [PAP (Prostatic Acid Phosphatase) peptide, position 302, 9 amino acids]
- relative binding ratio (A*2401) [4]: 0.032

Binder: VLAGGFFLL [Peptide 1126.10]
- IC50 [5]: 0.2 nM

Binder: KLRELSELSV [Peptide 63.0048 … (PAP.234.V10)]
- IC50 [6]: 263 nM
- IC50 [7]: 1820 nM

Binder: VTKFMLCAGR [PSA position 188, 10 amino acids]
- relative binding ratio (IC50 of standard peptide / IC50 of test peptide) [9]: 0.012

Binder: FLRPRSLQCV [Peptide 1419.07, HuK2.165]
- IC50 [12]: 4 nM

Binder: RMMNDQLMFL [Peptide 1126.06]
- IC50 [13]: 40 nM

Binder: WVLTAAHCI [PSA 55, 9 amino acids]
- relative binding ratio [20]: 0.0008

Binder: GLPEGDLVYV [Peptide 1389.22]
- IC50 [13]: 112 nM
- IC50 [8]: 964 nM

Binder: SLSLGFLFLL [peptide 1419.51, PAP.13]
- IC50 [21]: 40 nM

Binder: SLHLLSNDMCA [Peptide 1419.14, HuK2.175]
- IC50 [22]: 72 nM
- IC50 [12]: 73 nM

Binder: STCSGDSGGPL [PSA peptide, position 203, 11 amino acids]
- relative binding ratio [23]: 0.0092
- relative binding ratio [24]: 0.0005

Binder: HLLSNDMCV [peptide 1418.20, HuK2.177.V9]
- IC50 [16]: 102 nM
- IC50 [17]: 278 nM

Binder: GLHGQDLFGI [peptide 1166.11, PAP.196]
- IC50 [25]: 0.9 nM

Binder: VFRHGDRSPI [PAP (Prostatic Acid Phosphatase) peptide, position 41, 10 amino acids]
- relative binding ratio (A*2401) [4]: 0.0005

Binder: ALFPPEGVSV [peptide 1419.61, PAP.122.V10]
- IC50 [25]: 1 nM

Binder: GTPEGDLVYV [Peptide 1418.29]
- IC50 [33]: 313 nM
- IC50 [13]: 40 nM
- IC50 [8]: 571 nM

Binder: PLLLWQPIPV [Peptide 63.0042 … (PAP.134.L2)]
- IC50 [6]: 238 nM
- IC50 [32]: 47 nM
- IC50 [11]: 336 nM

Binder: TLSVTWIGV [Peptide 60.0217 (PSA.5.V9)]
- IC50 [37]: 4.9 nM
- IC50 [35]: 40 nM
- IC50 [38]: 712 nM
- IC50 [3]: 229 nM

Binder: FMLCAGLWV [peptide 1418.22, HuK2.195.V9]
- IC50 [18]: 51 nM

Binder: RAVCGGVLVH [PSA peptide, position 43, 10 amino acids]
- relative binding ratio (IC50 of standard peptide / IC50 of test peptide) [14]: 0.011

Binder: RMMNDQLMFL [peptide 1126.06, PSM.662]
- IC50 [39]: 40 nM

Further lines, results first:

- relative binding ratio (IC50 of standard peptide / IC50 of test peptide) [1]: 0.62
Binder: LTQLGMEQHY [PAP peptide, position 70, 10 amino acids]

- IC50 [2]: 200 nM
- IC50 [3]: 5000 nM
Binder: LMLLRLSEPA [Peptide 63.0014 (PSA.117)]

- IC50 [8]: 30 nM
Binder: QLMFLERAFI [Peptide 1126.16]

- IC50 [6]: 278 nM
- IC50 [10]: 133 nM
- IC50 [11]: 2640 nM
Binder: ALFPPEGVSI [Peptide 1419.6 … (PAP.122)]

- IC50 [5]: 0.7 nM
Binder: ALFDIESKV [Peptide 1129.08]

- relative binding ratio (IC50 of standard peptide / IC50 of test peptide) [14]: 0.0003
Binder: VTKFMLCAGR [PSA 188 10-mer peptide …]

- IC50 [15]: 5.3 nM
- IC50 [16]: 0.7 nM
- IC50 [17]: 4.3 nM
- IC50 [18]: 10 nM
- IC50 [19]: 1700 nM
Binder: LLSNDMCARV [peptide 1418.53, HuK2.178.V10]

- IC50 [22]: 50 nM
Binder: DLMLLRLSEPV [Peptide 1419.13, HuK2.120.V11]

- IC50 [25]: 0.6 nM
Binder: LLFFWLDRSV [peptide 1097.09, PAP.21]

- IC50 [26]: 9.5 nM
Binder: KLQCVDLHVV [peptide 1419.24, PSA.166.V10]

- relative binding ratio (IC50 of standard peptide / IC50 of test peptide) [27]: 0.031
Binder: RAVCGGVLVH [PSA 43, 10 amino acids]

- IC50 [28]: 0.2 nM
Binder: VLAGGFFLL [peptide 1126.10, PSM.27]

- IC50 [28]: 0.7 nM
Binder: ALFDIESKV [peptide 1129.08, PSM.711]

- relative binding ratio [20]: 0.0003
- relative binding ratio [29]: 0.0018
- relative binding ratio [30]: 0.0001
- relative binding ratio [31]: 0.016
Binder: WVLTAAHCL [Kallikrein 59, 9 amino acids]

- IC50 [6]: 250 nM
- IC50 [32]: 94 nM
- IC50 [11]: 451 nM
- IC50 [7]: 2290 nM
Binder: GVSIWNPILV [Peptide 63.0041 … (PAP.128.V10)]

- IC50 [19]: 6670 nM
Binder: KVTEFMLCV [peptide 1418.21, HuK2.191.V9]

- IC50 [34]: 3.2 nM
Binder: GLHGQDLFGV [peptide 1419.62, PAP.196.V10]

- IC50 [35]: 115 nM
Binder: MLLRLSEPAEV [Peptide 1389.12 (PSA.118.V11)]

- IC50 [36]: 50 nM
Binder: DLMLLRLSEPV [peptide 1419.13, PSA.116.V11 / HuK2.120.V11]
